Experimental findings from patent US12661396B2, “Selective targeting of the TREML1/MD2 interaction by small peptide or protein and its use for vaccine adjuvants” (Ascendo Biotechnology, Inc., priority 2020, dated 2026) are described below.

Assay [1] has as its system Human peripheral blood mononuclear cells (PBMCs). Briefly: TLR agonist-induced TNF-α secretion in human PBMCs with or without TREML1 ECD. The format is cell-based. As to conditions: human PBMCs, 18 hr; FIG. 7A. On the procedure:
Human peripheral blood samples from healthy volunteer donors were collected by venipuncture bled into ACD vacutainer tubes. Human peripheral blood mononuclear cells (PBMCs), which were separated from whole blood using Ficoll-Paque Plus (GE17-1440-03) according to the manufacturer's instructions. Human peripheral blood mononuclear cells (PBMCs) were pretreated with or without […]1 (10 ug/ml, 5 ug/ml and 1 ug/ml) and incubated for 30 min at 37° C. with 5% CO2. After treatments, cells were stimulated with TLR agonist, including R848 (InvivoGen #tlrl-r848) and ODN2395 (InvivoGen #tlrl-2395), and incubated at 37° C. with 5% CO2 for 18 hr. Supernatants of cell culture medium were collected for TNF-α measurements. Cell supernatants and plasma samples were harvested and stored at -80° C. Human TNFα concentrations were detected using TNF-α DuoSet ELISA kit (R&D #DY210) according to manufacturer's instructions. Signals were developed using 3,3',5,5'-tetramethylbenzidine and the absorbance of 450 nm was detected with a microplate reader.

In the next assay the target is TLR4 (Homo sapiens, UniProt O00206). Briefly: Solid phase binding assay, hTLR4 to immobilized TREML1 stalk. As to conditions: stalk coated 5 ug/ml; FIGS. 3A and 3B. The method, then:
(§1) For TREML1 or mTREML1 stalk binding to human or mouse MD2 protein, TREML1 stalk or mTREML1 stalk (5 ug/ml in PBS) was coated separately on a 96-well plate. Recombinant hTLR4, hMD2, hCD14, or mMD2 was each serially diluted and added to the plates. Anti-His tag antibody-HRP was used as a detection antibody to detect the protein binding.

In a further assay the target is T1, CD14 (Homo sapiens, UniProt P08571).
T1 sequence (P08571 20-345): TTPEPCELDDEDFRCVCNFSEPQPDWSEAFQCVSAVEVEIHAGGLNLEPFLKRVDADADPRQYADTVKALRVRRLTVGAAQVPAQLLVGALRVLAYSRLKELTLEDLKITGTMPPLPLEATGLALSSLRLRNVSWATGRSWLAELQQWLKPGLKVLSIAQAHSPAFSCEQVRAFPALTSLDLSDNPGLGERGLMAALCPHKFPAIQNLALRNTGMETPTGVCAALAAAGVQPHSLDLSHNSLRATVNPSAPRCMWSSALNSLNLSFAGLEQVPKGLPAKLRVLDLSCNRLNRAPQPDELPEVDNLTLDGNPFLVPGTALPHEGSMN
As to the kind of experiment: Solid phase binding assay, hCD14 to immobilized TREML1 stalk. The following applies: stalk coated 5 ug/ml; FIGS. 3A and 3B. The method, then: as §1

The target of another assay is T2, MD2 (Homo sapiens, UniProt Q9Y6Y9).
T2 sequence (Q9Y6Y9 19-160): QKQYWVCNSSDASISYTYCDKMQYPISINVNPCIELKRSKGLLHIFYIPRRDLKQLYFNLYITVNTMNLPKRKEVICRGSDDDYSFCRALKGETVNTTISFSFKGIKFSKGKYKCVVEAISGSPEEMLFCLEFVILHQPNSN
As to the kind of experiment: Solid phase binding assay, hMD2 to immobilized TREML1 stalk. As to conditions: stalk coated 5 ug/ml; anti-His tag antibody-HRP detection; FIG. 3A. The method, then:
as §1

A further assay relates to BMDCs. As to the kind of experiment: Mouse bone marrow derived dendritic cell maturation (flow cytometry). The assay is classed as cell-based. As to conditions: FIG. 8. On the procedure: Femurs and tibiae were harvested from female C57BL/6 mice and extra muscle tissues were removed. Bones were disinfected in 70% ethanol, then rinsed with RPMI-1640 medium, and both ends were cut to flush out the bone marrow with RPMI-1640 medium using 26 G needle syringes. To disperse cell clumps, bone marrow suspension was pipetted in-and-out several times and washed twice with RPMI-1640 medium by centrifugation. […] At day 0, after cell counting, the leukocytes were seeded at a concentration of 2×10^6 cells/10 ml R10 medium containing 200 U/ml rmGM-CSF in sterile […] Petri dish and incubated at 37° C. with 5% CO2. At day 3, another 10 ml of R10 medium containing 200 U/ml rmGM-CSF was added. At days 6, one half of the supernatant was taken out and centrifuged to collect cell pellet, which was resuspend in original plate with 10 ml of R10 medium containing 200 U/ml GM-CSF. At day 8, non-adherent cells were collected by gentle pipetting and centrifuged at 300 g for 5 min. To obtain purer dendritic cells, the population of macrophages (F4/80^high) was removed with Anti-F4/80 MicroBeads UltraPure (130-110-443, Miltenyi Biotec, Bergisch Gladbach, Germany) following the manufacturer's instructions. Briefly, cell pellet was resuspended and mixed well in MACS buffer with Anti-F4/80 MicroBeads UltraPure. This mixture was incubated for 15 min in the dark in 4° C. After washing cells with MACS buffer, cells were resuspended in MACS buffer, filtered with 30 μm nylon mesh, and added to the MACS buffer rinsed column to separate F4/80^+ cells. Unlabeled cells were collected and washed with R10 medium. To freeze the cells, cell pellet was counted and resuspended at a concentration 1×10^7 cell in 2 ml CELLBANKER2 (#11891, ZENOAQ) per cryopreservation vial and stored at −80 degree Celsius.
BMDCs were thawed for the DC maturation experiments. These cells were seeded at 1×10^6 cells/2 ml in R10 medium containing 200 U/ml rmGM-CSF in wells of a 6-well tissue culture dish and cultured to recover the cell viability at 37° C. with 5% CO2. After 6 hr, BMDCs were treated with various fragments of mTREML1 protein and cultured in 37° C. with 5% CO2. On the next day, resuspended cells were collected and analyzed by flow cytometry.
Cells were centrifuged at 1800 rpm for 3 min in PBS containing 1% FBS and 0.1% sodium azide (PBSBA), and then divided at a concentration of 1×10^5 cells/100 ul PBSBA in flow tube. Before staining the surface marker of DC, cells were treated with mouse Fc blocker to avoid antibody non-specific binding at room temperature for 30 min. […] After PBSBA washing, samples were analyzed using the CytoFlex flow cytometer with the CytExpert software.
Background: A flow cytometer gives signals particle by particle.

TLR4, sequence (O00206 24-839): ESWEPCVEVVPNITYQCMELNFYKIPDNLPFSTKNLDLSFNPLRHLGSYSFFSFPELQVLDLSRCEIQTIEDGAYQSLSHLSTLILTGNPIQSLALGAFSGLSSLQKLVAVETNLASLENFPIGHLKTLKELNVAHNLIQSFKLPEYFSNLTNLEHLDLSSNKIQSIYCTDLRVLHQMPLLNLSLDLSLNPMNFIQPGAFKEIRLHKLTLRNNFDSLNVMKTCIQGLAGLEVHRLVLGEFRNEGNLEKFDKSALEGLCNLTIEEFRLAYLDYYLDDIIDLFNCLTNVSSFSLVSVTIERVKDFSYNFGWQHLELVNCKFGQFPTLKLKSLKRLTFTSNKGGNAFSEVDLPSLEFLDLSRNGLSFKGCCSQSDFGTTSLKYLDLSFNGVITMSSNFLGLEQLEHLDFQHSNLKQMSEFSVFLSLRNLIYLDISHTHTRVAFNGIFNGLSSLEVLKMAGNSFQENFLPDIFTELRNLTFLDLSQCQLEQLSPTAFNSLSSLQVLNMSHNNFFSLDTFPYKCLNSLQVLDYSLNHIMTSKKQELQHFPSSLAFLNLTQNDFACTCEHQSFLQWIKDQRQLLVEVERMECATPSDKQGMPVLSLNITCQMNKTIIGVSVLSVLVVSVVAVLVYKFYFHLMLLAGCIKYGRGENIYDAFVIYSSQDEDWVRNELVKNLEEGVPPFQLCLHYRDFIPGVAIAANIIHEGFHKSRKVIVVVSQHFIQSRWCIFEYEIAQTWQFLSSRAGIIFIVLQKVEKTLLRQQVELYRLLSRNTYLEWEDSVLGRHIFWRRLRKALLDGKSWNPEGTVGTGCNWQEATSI

As for `CCOCc1nc2c(N)nc3ccccc3c2n1CC(C)(C)O` [R848, 4-amino-2-(ethoxymethyl)-α,α-dimethyl-1H-imidazo[4,5-c]quinoline-1-ethanol, reference compound], the “TNF-α secretion induced by TLR agonist alone” value in assay [1] is on record as “can induce TNF-α secretion”.

On to “TREML1 stalk: human TREML1 stalk polypeptide, SEQ ID NO:3, ILPPEEEEETHKIGSLAENAFSDPAGSANPLEPSQDEKSIP, chemically synthesized (listed as Homo sapiens)”, for which the “TLR4 binding to immobilized TREML1 stalk” value in the assay with TLR4 is reported as “do not bind TREML1 stalk”. Moreover, in the assay with CD14, the “CD14 binding to immobilized TREML1 stalk” value is on record as “do not bind TREML1 stalk”. Further, the “MD2 binding to immobilized TREML1 stalk” value with MD2 is listed as “binds with TREML1 stalk in a concentration-dependent manner”.

B1: mTREML1 ECD: mouse TREML1 extracellular domain, SEQ ID NO:2; recombinant, E. coli, polyhistidine tag at the N-terminus (protein, listed as Mus musculus)
chain: DSHPEVLQAPVGSSILVQCHYRLQDVRALKVWCQFLQEGCHPLVTSAVDRRAPGNGRIFLTDLGGGLLQVEMVTLQEEDTGEYGCVVEGAAGPQTLHRVSLLVLPPVPGPREGEEAEDEKETYRIGTGSLLEDPSLDPSASAGPHEFRRRENSIP
modifications: N-terminal polyhistidine tag
notes: recombinant, E. coli, polyhistidine tag at the N-terminus
B1: the “dendritic cell maturation effect compared with TNF-α” value with BMDCs was “significantly stronger than those of TNF-α”. The “dendritic cell maturation (DC maturation markers CD40, CD86, CD80, MHC II)” value with BMDCs (analyzed the next day) is “can trigger dendritic cell maturation”.
